The target of this assay is human EGFR-WT (human) (UniProt P00533).

Substance “human recombinant Epiregulin (from UniProt O14944 63-108) (ligand)” returned a potency of hEpiregulin against hEGF for recruitment of the seven SH2 biosensors to the plasma membrane (ebBRET, Fig. 2a), HEK293 cells with EGFR-WT, 10 min (fold less potent than hEGF) above 100.

Values taken from publication PMC10907714.
